Experimental data reported in PMC4735555 (2016).

Molecular target: 2N5.1 TCR
Assay: SPR; Mamu-B*098 loaded with C14nef5

Kd: 2500 nM
B1: β2m-linked Mamu-B*098 protein (single-chain, refolded without C14nef5, biotinylated) (other)
chain: IQRTPKIQVYSRHPPENGKPNFLNCYVSGFHPSDIEVDLLKNGEKMGKVEHSDLSFSKDWSFYLLYYTEFTPNEKDEYACRVNHVTLSGPRTVKWDRDMGGGGSGGSGSGGGSSGSHSMRYFSTTVSRPGRGEPRFIVVGYVDDTQFVRFDSDAASPKMEPRAPWMEQEGPEYWEEQTRRVKDAAQTFRVSLGNLRGYYNQSEAGSHTLQTMSGCDLGPDGRLLRGYYQQAYDGRDYIALNEDLRSWTAADEAAQNTQRKWEAAGVAEQWRAYLEGECLESLRRYLENGKETLQRAEPPKTHVTHHPVSDHEATLRCWALGFYPAEITLTWQRDGEDQTQDTELVETRPGGDGTFQKWGAVVVPSGEEQRYTCHVQHEGLPEPLTLRWEPLHHILDAQKMVWNHR
modifications: biotin (BirA) on the biotinylation sequence peptide
